Patent US20230159661A1 (published 2023)
Read-outs that look alike come from different tables or passages of the source. Each block holds one binder with its values, some of them ahead of it.

Assays:
[1] = molecular target: T1, human EGFR soluble extracellular region with C-terminal poly-histidine tag (hEGFR) (UniProt P00533 25-638); assay: SPR
[2] = molecular target: T1, human EGFR soluble extracellular region …; assay: SPR; remark: listed apart in the source

B1: 3A6 chimeric antibody (antibody, V domains shown)
VH: QVQLKQSGPGLVQPSQSLSITCTVSGFSLTSYGVHWVRQSPGKGLEWLGVIWSGGTTDYNAAFISRLSISQDNSKSQVFFKMNSLQANDTAIYYCAGNQGRTVRPTWFAYWGQGTLVTVSS
VL: DILLTQSPAILSVSPGERVSFSCRASQSIGTSIHWYQQRANGSPRLLIKYASESISGIPSRFSGSGSGTDFTLSINSVESEDIAHYYCQQNSNWPLTFGAGTKLELKR
- Kd [1]: 346 nM

B2: 10E6-best-fit (antibody, V domains shown)
VH: QVQLQESGPGLVKPSQTLSLTCTVSGYSLTSDYAWSWIRQPPGKGLEWMVYITYSGITTYNPSLKSRITISRDTSKNQFSLKLSSVTAADTAVYYCAGGDYGLSSWFAYWGQGTTVTVSS
VL: EIVLTQSPDFQSVTPKEKVTITCRASQSISNYLHWYQQKPDQSPKLLIKYASQSISGVPSRFSGSGSGTDFTLTINSLEAEDAATYFCQQSNNWPYTFGQGTKLEIKR
- Kd [2]: 20.1 nM

Results, then the binder that gave them:

- Kd [2]: 14.5 nM
B3: 10E6-stable (antibody, V domains shown)
VH: EVQLVESGGGLVQPGGSLRLSCAVSGYSLTSDYAWSWIRQAPGKGLEWMVYITYSGITTYNPSLKSRITISRDTSKNTFYLQMNSLRAEDTAVYYCAGGDYGLSSWFAYWGQGTMVTVSS
VL: DIQLTQSPSSLSASVGDRVTITCRASQSISNYLHWYQQKPGKAPKLLIKYASQSISGVPSRFSGSGSGTDFTLTISSLQPEDFATYFCQQSNNWPYTFGQGTKVEIKR

- Kd [1]: 10.8 nM
B4: 10E6 chimeric antibody (antibody, V domains shown)
VH: DVQLQESGPGRVKPSQSLSLTCTVTGYSLTSDYAWSWIRQFPGNRLEWMVYITYSGITTYNPSLKSRISITRDTSKNQFFLQLNSVTTEDTATYYCAGGDYGLSSWFAYWGQGTLVTVSS
VL: DIVLTQSPVTLSVTPGDRVSLSCRASQSISNYLHWYQQKSHESPRLLIKYASQSISGIPSRFSGSGSGTDFTLSINSVETEDFGMYFCQQSNNWPYTFGGGTKLEIKR
